Assay results published in US12797409, “Heparan sulfate mimetics to improve glucose clearance” (THE REGENTS OF THE UNIVERSITY OF CALIFORNIA).

T1: Alpl (alkaline phosphatase) (Mus musculus, UniProt P09242 P09242:18-501)
T1 sequence: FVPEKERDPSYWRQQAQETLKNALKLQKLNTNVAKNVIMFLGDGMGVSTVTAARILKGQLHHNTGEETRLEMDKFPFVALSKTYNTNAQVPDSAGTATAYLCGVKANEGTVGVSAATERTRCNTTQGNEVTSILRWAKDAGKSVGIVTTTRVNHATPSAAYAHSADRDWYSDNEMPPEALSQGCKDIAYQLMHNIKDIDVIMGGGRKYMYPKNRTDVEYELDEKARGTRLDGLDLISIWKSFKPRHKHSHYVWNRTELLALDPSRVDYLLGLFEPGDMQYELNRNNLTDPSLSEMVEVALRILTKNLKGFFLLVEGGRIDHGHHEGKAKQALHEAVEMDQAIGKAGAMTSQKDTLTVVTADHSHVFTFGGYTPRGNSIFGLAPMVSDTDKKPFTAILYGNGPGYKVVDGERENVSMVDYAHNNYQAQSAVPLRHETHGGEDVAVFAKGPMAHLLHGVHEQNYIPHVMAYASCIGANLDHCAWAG

B1: Aptamer 19S (ssDNA)
DNA: AGGTCAGATGAGGAGGGGGACTTAGGACTGGGTTTATGACCTATGCGTG
modifications: 5'-biotin
B2: Hep-SA-19S (heparin-streptavidin-aptamer 19S chimera) (ssDNA)
DNA: B1 DNA
modifications: 5'-biotin, bound to streptavidin carrying biotinylated heparin (1:1:1)

Experiments:
[1] = target: T1, Alpl (alkaline phosphatase); test: flow; biotinylated aptamer alone on Ext1-/- mouse ES cells; cell-surface binding; conditions: tags: endogenous on Ext1-/- mouse embryonic stem cells; chain copies: 2; G4
[2] = target: T1, Alpl (alkaline phosphatase); test: flow; Ext1-/- mouse ES cells, 40 min in suspension, 0-200 nM; binding significantly reduced after 6 days of neural differentiation; conditions: tags: endogenous on Ext1-/- mouse embryonic stem cells; chain copies: 2; label: AF488 (on streptavidin); G4

Binder	EC50 [1] [nM]	EC50 [2] [nM]
B1	~107	
B2		70
